Data taken from publication PMC3380378.

Legend:
Assay in all cases: purified protein
[1] = system: O=C(O)C(=O)C[C@@H](O)[C@@H](O)[C@H](O)[C@H](O)COP(=O)(O)O; details: Mg2+; pH 10.0
purified protein [2] = substrate: Nc1ccn([C@@H]2O[C@H](COP(=O)(O)OP(=O)(O)OP(=O)(O)O)[C@@H](O)[C@H]2O)c(=O)n1; format: biochemical, Escherichia coli; details: Mg2+; pH 9.3
purified protein [3] = substrate: O=C(O)C(=O)C[C@@H](O)[C@@H](O)[C@H](O)[C@H](O)CO; format: biochemical, Escherichia coli; details: Mg2+; pH 9.3

3-deoxy-D-manno-octulosonic acid 8-phosphate phosphatase (KdsC) (Escherichia coli K-12)
Km [1]: 370 ± 10 µM

B1: 3-deoxy-D-manno-octulosonate cytidylyltransferase (KdsB, CMP-KDO synthetase) (Escherichia coli K-12) (protein)
chain: MSFVVIIPARYASTRLPGKPLVDINGKPMIVHVLERARESGAERIIVATDHEDVARAVEAAGGEVCMTRADHQSGTERLAEVVEKCAFSDDTVIVNVQGDEPMIPATIIRQVADNLAQRQVGMATLAVPIHNAEEAFNPNAVKVVLDAEGYALYFSRATIPWDRDRFAEGLETVGDNFLRHLGIYGYRAGFIRRYVNWQPSPLEHIEMLEQLRVLWYGEKIHVAVAQEVPGTGVDTPEDLERVRAEMR
Km (purified protein [2]): 330 ± 40 µM
Km (purified protein [3]): 280 ± 20 µM
